# Results from patent US20200140532A1 (Ablynx, published 2020).
# Assays:
# [1] = molecular target: T1, recombinant human Aggrecan G1-IGD-G2 (human, UniProt P16112 20-676); experiment: periplasmic extract ELISA
# T1 construct: Only the G1-IGD-G2 region was used (R&D Systems 1220-PG is named for the immunogen); also called Hu G1-IGD-G2
# [2] = molecular target: T2, recombinant rat Aggrecan G1-IGD-G2 (rat, UniProt P07897 20-684, limits assumed); experiment: periplasmic extract ELISA
# T2 construct: also called Rat G1-IGD-G2
# [3] = molecular target: T3, recombinant dog Aggrecan G1-IGD-G2 (dog, UniProt Q28343 20-693, limits assumed); experiment: periplasmic extract ELISA
# T3 construct: also called Dog G1-IGD-G2
# [4] = molecular target: T4, recombinant bovine Aggrecan G1-IGD-G2 (bovine, UniProt P13608 20-684, limits assumed); experiment: periplasmic extract ELISA
# T4 construct: also called Bov G1-IGD-G2; Boy G1-IGD-G2
# [5] = molecular target: T1, recombinant human Aggrecan G1-IGD-G2; experiment: ELISA on recombinant G1-IGD-G2
# [6] = molecular target: T2, recombinant rat Aggrecan G1-IGD-G2; experiment: ELISA on recombinant G1-IGD-G2
# [7] = molecular target: T3, recombinant dog Aggrecan G1-IGD-G2; experiment: ELISA on recombinant G1-IGD-G2
# [8] = molecular target: T4, recombinant bovine Aggrecan G1-IGD-G2; experiment: ELISA on recombinant G1-IGD-G2
# [9] = molecular target: recombinant human Neurocan (human, UniProt O14594 23-1321, limits assumed); experiment: ELISA on recombinant human Neurocan
Binder,OD 450 nm [1] [OD 450 nm],OD 450 nm [2] [OD 450 nm],OD 450 nm [3] [OD 450 nm],OD 450 nm [4] [OD 450 nm],EC50 [5] [nM],EC50 [6] [nM],EC50 [7] [nM],EC50 [8] [nM],EC50 [9] [nM]
"C0101PMP117D05 (VHH, Tested as E. coli periplasmic extract; not shown: FLAG3 and His6 tags (phagemid pAX212)) VHH: KVQLVESGGGLVQAGGSLRLSCAASRRTFNMMGWFRQAPGKEREFVAYITWNGGDTRYAESVKGRFTVSRDDVKNTMALQMNRLDPLDTAVYYCGVRIHGSNWSTKADDYDNWGQGTQVTVSS",2.25,2.35,1.53,1.92,,,,,
"C0101PMP601D02 (VHH, Tested as E. coli periplasmic extract; not shown: FLAG3 and His6 tags (phagemid pAX212)) VHH: DVQLVESGGGLVQPGGSLRLSCAASGPTFSRYAMGWFRQAPGKEREFVAAITWSSGGRTYYADSVKGRFTISRDNSKNTVYLQMNSLRPEDTAVYYCAAARIPVRTYTSEWNYWGQGTLVTVSS",2.58,2.59,2.58,,,,,,
"C0101PMP604B05 (VHH, Tested as E. coli periplasmic extract; not shown: FLAG3 and His6 tags (phagemid pAX212)) VHH: DVQLVESGGGLVQPGGSLRLSCVASGRTFSIYTMAWFRQAPGKEREFVAAISWSSGRTYYADSVKGRFTISRDNSKNTVYLQMNSLRPEDTAVYYCTAYTGPRSGYDYWGQGTLVTVSS",2.48,1.98,1.27,1.63,,,,,
"C0101PMP604G09 (VHH, Tested as E. coli periplasmic extract; not shown: FLAG3 and His6 tags (phagemid pAX212)) VHH: DVQLVESGGGLVQPGGSLRLSCVASGRTFSSYAMGWFRQAPGKEREFVAAITWSSATTYYADSVKGRFTISRDNSKNTVYLQMNSLRPEDTAVYYCAAARIPVGRRSENWDYWGQGTLVTVSS",2.41,1.4,1.16,1.21,,,,,
"C01010109 (ALB26-608A05-608A05) (VHH, not shown: small tags and cut ends) VHH 1: DVQLVESGGGLVQPGGSLRLSCAASGRTFSTYTMGWFRQAPGKEREFVAAISWSGGTTYYADSVKGRFTISRDNSKNTVYLQMNSLRPEDTAVYYCAARPRYYYYSLYSYDYWGQGTLVTVSS VHH 2: DVQLVESGGGLVQPGGSLRLSCAASGRTFSTYTMGWFRQAPGKEREFVAAISWSGGTTYYADSVKGRFTISRDNSKNTVYLQMNSLRPEDTAVYYCAARPRYYYYSLYSYDYWGQGTLVTVSS",,,,,0.1,0.095,0.33,0.077,
"C0101PMP608A05 (VHH, Tested as E. coli periplasmic extract; not shown: FLAG3 and His6 tags (phagemid pAX212)) VHH: DVQLVESGGGLVQPGGSLRLSCAASGRTFSTYTMGWFRQAPGKEREFVAAISWSGGTTYYADSVKGRFTISRDNSKNTVYLQMNSLRPEDTAVYYCAARPRYYYYSLYSYDYWGQGTLVTVSS",2.33,2.39,0.86,2.27,,,,,
"C0101PMP604G01 (VHH, Tested as E. coli periplasmic extract; not shown: FLAG3 and His6 tags (phagemid pAX212)) VHH: DVQLVESGGGLVQPGGSLRLSCAASGRTFSSYTMGWFRQAPGKEREFVAAISWSGRTTYYADSVKGRFTISRDNSKNTVYLQMNSLRPEDTAVYYCAAYRRVRYTNLEVWDYWGQGTLVTVSS",2.27,0.6,1.55,0.68,,,,,
"C01010106 (ALB26-604F02-604F02) (VHH, not shown: large carriers; small tags and cut ends) VHH 1: DVQLVESGGGLVQPGGSLRLSCAASGRTFSSYTMGWFRQAPGKEREFVAAISWSGGRTYYADSVKGRFTISRDNSKNTVYLQMNSLRPEDTAVYYCAAYRRRRASSNRGLWDYWGQGTLVTVSS VHH 2: DVQLVESGGGLVQPGGSLRLSCAASGRTFSSYTMGWFRQAPGKEREFVAAISWSGGRTYYADSVKGRFTISRDNSKNTVYLQMNSLRPEDTAVYYCAAYRRRRASSNRGLWDYWGQGTLVTVSS",,,,,0.066,0.1,0.097,,
"C0101PMP604F02 (VHH, Tested as E. coli periplasmic extract; not shown: FLAG3 and His6 tags (phagemid pAX212)) VHH: DVQLVESGGGLVQPGGSLRLSCAASGRTFSSYTMGWFRQAPGKEREFVAAISWSGGRTYYADSVKGRFTISRDNSKNTVYLQMNSLRPEDTAVYYCAAYRRRRASSNRGLWDYWGQGTLVTVSS",2.41,0.78,1.04,0.82,,,,,
"C0101PMP112A03 (VHH, Tested as E. coli periplasmic extract; not shown: FLAG3 and His6 tags (phagemid pAX212)) VHH: EVQLVESGGGLVQPGGSLRLSCAASGSIFSNRFMYWYRQAPGKQRELVASITLSGSTNYADSVKGRFTISRDNAKNTVYLQMNSLKPEDTAVYYCNTFLQNSFYWGQGTQVTVSS",2.51,1.69,1.47,0.73,,,,,
"C0101PMP113A01 (VHH, Tested as E. coli periplasmic extract; not shown: FLAG3 and His6 tags (phagemid pAX212)) VHH: EVQLVESGGGLVQPGGSLRLSCSASGFTFSGSWMFWVRQAPGKDYEWVASINSSGGRTYYDDSVKGRFTISRDSAKNTLYLEMNNLKPEDTALYFCARSPRVGSWGQGTQVTVSS",2.56,2.53,2.51,2.54,,,,,
"C01010118 (ALB26-114F08-114F08) (VHH, not shown: small tags and cut ends, also called C010100118) VHH 1: EVQLVESGGGLVQAGGSLRLSCAASGSTFIINVVRWYRRTPGKQRELVATISSGGNANYVDSVRGRFSISRDGAKNAVDLQMNGLKPEDTAVYYCNVPTTHYGGVYYGPYWGQGTQVTVSS VHH 2: EVQLVESGGGLVQAGGSLRLSCAASGSTFIINVVRWYRRTPGKQRELVATISSGGNANYVDSVRGRFSISRDGAKNAVDLQMNGLKPEDTAVYYCNVPTTHYGGVYYGPYWGQGTQVTVSS",,,,,0.11,0.19,0.24,0.37,
"C0101PMP114F08 (VHH, Tested as E. coli periplasmic extract; not shown: FLAG3 and His6 tags (phagemid pAX212)) VHH: EVQLVESGGGLVQAGGSLRLSCAASGSTFIINVVRWYRRTPGKQRELVATISSGGNANYVDSVRGRFSISRDGAKNAVDLQMNGLKPEDTAVYYCNVPTTHYGGVYYGPYWGQGTQVTVSS",2.38,2.05,1.9,1.18,,,,,
"C0101PMP609C09 (VHH, Tested as E. coli periplasmic extract; not shown: FLAG3 and His6 tags (phagemid pAX212)) VHH: DVQLVESGGGLVQPGGSLRLSCAASGTIFSINVMGWYRQAPGKEREFVAAITTGGRTNYADSVKGRFTISRDNSKNTVYLQMNSLRPEDTAVYYCNAEVTTGWVGYSWYDYWGQGTMVTVSS",2.1,0.97,1.52,1.08,,,,,
"C0101PMP117G09 (VHH, Tested as E. coli periplasmic extract; not shown: FLAG3 and His6 tags (phagemid pAX212)) VHH: EVQLVESGGGSALPGGSLRLSCAASGITFSSRYMRWYRQAPGRQRELVAAISSGGRTDYVDSVRGRFTLSINNAKNTVYLQMNDLKPEDTAVYYCYRPRMYVDGTYEKELWGQGTLVTVSS",2.21,2.29,1.68,0.76,,,,,
"C0101PMP115B08 (VHH, Tested as E. coli periplasmic extract; not shown: FLAG3 and His6 tags (phagemid pAX212)) VHH: KVQLVESGGGLVQPGGSLRLSCAASGFTFSMYAMKWVRQAPGKGLEWVSGINSSGGRTNYAGSVKGRFTISRDNAKNTLYLQMNSLKPEDTAVYYCATDFLGGRNSRGQGTQVTVSS",1.65,1.85,1.8,0.84,,,,,
"C0101PMP601E08 (VHH, Tested as E. coli periplasmic extract; not shown: FLAG3 and His6 tags (phagemid pAX212)) VHH: DVQLVESGGGLVQPGGSLRLSCTASGRTFSSYAVGWFRQAPGKEREFVAAISRSGRSTYYADSVKGRFTISRDNSKNTVYLQMNSLRPEDTAVYYCAAGLSYYSPHAYYDYWGQGTLVTVSS",2.28,2.49,0.57,1.68,,,,,
"C0101PMP112A01 (VHH, Tested as E. coli periplasmic extract; not shown: FLAG3 and His6 tags (phagemid pAX212)) VHH: EVQLVESGGGLVQTGGSLRLSCVASGRAFSNYIMGWFRQAPGKERDFVAAINWNGVTTHYTDSVKGRFTISRDNAKSTSYLQMDSLKPDDTAVYFCAARGTVYSRTYGVSEEGYMYWGQGTQVTVSS",2.5,2.03,1.57,2.41,,,,,
"C0101PMP601E09 (VHH, Tested as E. coli periplasmic extract; not shown: FLAG3 and His6 tags (phagemid pAX212)) VHH: DVQLVESGGGLVQPGGSLRLSCAASGLTFSTYAMGWFRQAPGKEREFVAAISWSGSRTYYADSVKGRFTISRDNSKNTVYLQMNSLRPEDTAVYYCAAYRRPRYSPTGTWDYWGQGTLVTVSS",,2.61,2.57,,,,,,
"C01010113 (ALB26-606A07-606A07) (VHH, not shown: small tags and cut ends, also called AL326-606A07-606A07) VHH 1: DVQLVESGGGLVQPGGSLRLSCVASGRTFSIYGMGWFRQAPGKEREFVAAINGGSRTYYADSVKGRFTISRDNSKNTVYLQMNSLRPEDTAVYYCAADRSGYGTSLDWWYDYWGQGTLVTVSS VHH 2: DVQLVESGGGLVQPGGSLRLSCVASGRTFSIYGMGWFRQAPGKEREFVAAINGGSRTYYADSVKGRFTISRDNSKNTVYLQMNSLRPEDTAVYYCAADRSGYGTSLDWWYDYWGQGTLVTVSS",,,,,0.67,0.12,3,,0.87
"C0101PMP606A07 (VHH, Tested as E. coli periplasmic extract; not shown: FLAG3 and His6 tags (phagemid pAX212)) VHH: DVQLVESGGGLVQPGGSLRLSCVASGRTFSIYGMGWFRQAPGKEREFVAAINGGSRTYYADSVKGRFTISRDNSKNTVYLQMNSLRPEDTAVYYCAADRSGYGTSLDWWYDYWGQGTLVTVSS",0.71,2.31,1.47,,,,,,
